Test results published in PMC2812701, “RelB and RelE of Escherichia coli Form a Tight Complex That Represses Transcription via the Ribbon–Helix–Helix Motif in RelB” (Journal of Molecular Biology, 2009).
Several values for one entry are separate records, joined by “and”; a condition that tells them apart may be missing. Identical values can stand only once.

Assays:
RelB-Cys (E. coli) [1] = biological target: RelB-Cys (E. coli) (UniProt P0C079); experiment: SPR; Biacore 3000, CM5 chip; about 40 RU RelB-Cys immobilised by ligand thiol coupling; His6-RelE injected at 12.5-100 nM, 60 ul/min; HBS-EP (10 mM Hepes, 150 mM NaCl, 0.005% Tween 20, 3 mM EDTA, pH 7.4); 1:1 Langmuir fit; apparent Kd (koff/kon)
RelB-Cys (E. coli) [2] = biological target: RelB-Cys (E. coli) (UniProt P0C079); experiment: SPR; Biacore 3000, CM5 chip; RelB-Cys immobilised by ligand thiol coupling; Lon-His6 injected at 200 nM with or without MgCl2 (8 mM) and ATP (2 mM), and at 12.5-100 nM (monomer) for kinetics; 60 ul/min; HBS-EP pH 7.4; apparent Kd
HMK-RelB (E. coli) = biological target: T1, HMK-RelB (E. coli) (UniProt P0C079)
T1 sequence (chain, 32P label on the N-terminal HMK-tag (RRASV)): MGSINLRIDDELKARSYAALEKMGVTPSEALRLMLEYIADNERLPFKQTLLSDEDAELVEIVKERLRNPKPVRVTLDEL

[3] = system: RelB R7A;His6-RelE (Escherichia coli;Escherichia coli); experiment: EMSA; conditions: EMSA and footprint binding buffer as in an earlier paper (not given); footprint binding volume 35 ul, radical cleavage 37 C 1 min; native PAGE for EMSA
[4] = system: RelB K13A;His6-RelE (Escherichia coli;Escherichia coli); experiment: EMSA; conditions: EMSA and footprint binding buffer as in an earlier paper (not given); footprint binding volume 35 ul, radical cleavage 37 C 1 min; native PAGE for EMSA
[5] = system: RelB S28L;His6-RelE (Escherichia coli;Escherichia coli); experiment: EMSA; conditions: EMSA and footprint binding buffer as in an earlier paper (not given); footprint binding volume 35 ul, radical cleavage 37 C 1 min; native PAGE for EMSA
[6] = biological target: the molecule itself; experiment: cross-linking; chemical cross-linking of WT RelB and the mutated variants with BS3 [bis(sulfosuccinimidyl) suberate] (Fig. S1)
His6-RelE [7] = biological target: T2, His6-RelE (E. coli, UniProt P0C077 1-95); experiment: other fluorescence titration; tryptophan fluorescence of His6-RelE (0.35 uM) titrated with RelB; 25 °C; phosphate-buffered saline pH 7.4; excitation 295 nm, emission about 330 nm; conditions: both partners purified
T2 construct: toxin RelE (mRNA interferase) of the relBE locus, Escherichia coli, wild type; also called co-repressor RelE; mRNA interferase RelE; source: also in cells, co-expressed with RelB; not shown: His6, N-terminal, kept
T2 sequence (looked up): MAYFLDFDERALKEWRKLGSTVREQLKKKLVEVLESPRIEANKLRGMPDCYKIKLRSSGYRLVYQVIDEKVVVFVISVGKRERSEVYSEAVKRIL

His6-RelE [8] = biological target: T2, His6-RelE; experiment: amino acid analysis of the co-purified complex; purified RelB·RelE complex preformed in vivo (Table S2); conditions: partners not purified

Molecule: His6-RelE (from UniProt P0C077 1-95) (natural protein)
- Kd (RelB-Cys (E. coli) [1]): 0.33 nM
- in vitro half-life of the complex (RelB-Cys (E. coli) [1]): 1.17 h
- koff (RelB-Cys (E. coli) [1]): 0.000166 s⁻¹
- kon (RelB-Cys (E. coli) [1]): 501000 M⁻¹ s⁻¹

Molecule: Lon-His6 (from UniProt P0A9M0 1-784) (enzyme)
- Kd (RelB-Cys (E. coli) [2]): < 2 nM
- koff (RelB-Cys (E. coli) [2]): 0.000234 s⁻¹
- in vitro degradation of 32P-labelled HMK-RelB (0.13 uM) by Lon (0.6 uM) at 37 °C, ATP- and Mg2+-dependent, time course up to 120 min; in vitro half-life of HMK-RelB (HMK-RelB (E. coli)): > 1 h

Molecule: relO166 (Cy5)
- K half [3]: > 1250 nM
- K half [4]: > 1250 nM
- K half [5]: > 1250 nM

B1: RelB (wild type) (natural protein, E. coli, UniProt P0C079 1-79, looked up)
chain: MGSINLRIDDELKARSYAALEKMGVTPSEALRLMLEYIADNERLPFKQTLLSDEDAELVEIVKERLRNPKPVRVTLDEL
notes: antitoxin RelB of the relBE locus, Escherichia coli, wild type; also called WT RelB; antitoxin RelB; source: also in cells, co-expressed with His6-RelE
- stoichiometry N [6]: 2 and 4
- stoichiometry N (His6-RelE [7]): ~2 RelB/RelE
- stoichiometry N (His6-RelE [8]): 2 RelB/RelE

B2: RelB^R7A (natural protein, E. coli, UniProt P0C079 1-79, looked up)
chain: MGSINLAIDDELKARSYAALEKMGVTPSEALRLMLEYIADNERLPFKQTLLSDEDAELVEIVKERLRNPKPVRVTLDEL
notes: antitoxin RelB, Escherichia coli, with R7A; also called RelB RHH variant R7A; source: also in cells, co-expressed with His6-RelE
- binding result [6]: binds

B3: RelB^I8A (natural protein, E. coli, UniProt P0C079 1-79, looked up)
chain: MGSINLRADDELKARSYAALEKMGVTPSEALRLMLEYIADNERLPFKQTLLSDEDAELVEIVKERLRNPKPVRVTLDEL
notes: antitoxin RelB, Escherichia coli, with I8A; also called RelB RHH variant I8A; source: also in cells, co-expressed with His6-RelE
- stoichiometry N [6]: 2 and 4

B4: RelB^S28L (natural protein, E. coli, UniProt P0C079 1-79, looked up)
chain: MGSINLRIDDELKARSYAALEKMGVTPLEALRLMLEYIADNERLPFKQTLLSDEDAELVEIVKERLRNPKPVRVTLDEL
notes: antitoxin RelB, Escherichia coli, with S28L; also called RelB RHH variant S28L; source: also in cells, co-expressed with His6-RelE
- stoichiometry N [6]: 2 and 4

B5: RelB^S28R (natural protein, E. coli, UniProt P0C079 1-79, looked up)
chain: MGSINLRIDDELKARSYAALEKMGVTPREALRLMLEYIADNERLPFKQTLLSDEDAELVEIVKERLRNPKPVRVTLDEL
notes: antitoxin RelB, Escherichia coli, with S28R; also called RelB RHH variant S28R; source: also in cells, co-expressed with His6-RelE
- stoichiometry N [6]: 2 and 4

B6: RelB^K13A (natural protein, E. coli, UniProt P0C079 1-79, looked up)
chain: MGSINLRIDDELAARSYAALEKMGVTPSEALRLMLEYIADNERLPFKQTLLSDEDAELVEIVKERLRNPKPVRVTLDEL
notes: antitoxin RelB, Escherichia coli, with K13A; also called RelB RHH variant K13A; source: also in cells, co-expressed with His6-RelE
- binding result [6]: binds
